T1: 32-residue peptide encompassing RSV G Phe165-Lys196, subtype B (Human respiratory syncytial virus …, UniProt O36633, strain)
T1 construct: attachment glycoprotein G of human RSV subtype B, residues Phe165-Lys196; The tested set is a series of alanine mutants of this peptide; source: covalently linked peptides on Pepscan cards
T1 chain: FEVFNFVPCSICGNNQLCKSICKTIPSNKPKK

T2: 45-residue synthetic peptide encompassing the subtype A RSV G central conserved region (G peptide) (Human respiratory syncytial virus A …, not fully specified; N-terminal biotin coupling as the last step in synthesis; disulfide bonds of the cystine noose formed by oxidative folding)
T2 construct: attachment glycoprotein G of human RSV subtype A, central conserved region, residues Asn153-Lys197 (45 residues); also called RSV G peptide; subtype A RSV G peptide; source: synthetic peptide (Fmoc solid phase, HPLC), oxidatively folded
T2 chain: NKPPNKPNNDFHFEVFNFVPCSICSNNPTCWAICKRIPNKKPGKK

B1: CB017.5 IgG (antibody, V domains shown)
VH: QVQLVESGGGVVQPGRSLRLSCSASGFTFSVYAMHWVRQAPGQGLEWVAIIWYDGSNKYYADSVKGRFTISRDNSKETLYLQMNSLRVEDTAVYYCARDPIVGHTRDGLDVWGQGTTVTVSS
VL: SYELTQPPSVSVSPGQTARVTCSGDAMAEQYTYWYQQKPGQAPVLIIFKDTERPSGIPERFSGSSSGTTVTLTISGVQTEDEADYYCQSTDSSGTSWVFGGGTKLTVL
notes: as the light chain of m2 (PDB 6BLH); full-length IgG1; also called antibody CB017.5; source: FreeStyle 293-F or PER.C6 cells, transfected, purified (Protein A)
B2: Fab CB017.5 (Fab, V domains shown)
VH: B1 VH
VL: B1 VL
notes: human; Fab cut with papain from full-length IgG1; source: IgG from FreeStyle 293-F or PER.C6 cells, transfected, Protein A; Fab by papain digestion, purified (Protein A flow-through, SEC)
B3: CB002.5 IgG (antibody, V domains shown)
VH: QVQLQESGPRLVKPSETLSLTCTVSGGSTSSYFWNWIRQPPGKGLEWIGYIYGSGSADYNPSLKSRVTISIDTSKTQFSLKLTSVTAADTAVYYCARSGFCSDDACYRRGSWFDPWGQGTLVTVSS
VL: DIQMTQSPSSLSASVGDRVTITCRASQSIDNYLNWYQQKPGKAPKLLIYAASGLQSGVPSRFSGSGSGTEFTLTVSSLHPEDFATYYCQQSYSTLTWTFGQGTKVEIK
B4: Fab CB002.5 (Fab, V domains shown)
VH: B3 VH
VL: B3 VL
notes: as for B2

How the values were obtained:
[1] = biological target: secreted form of RSV G from strain A2 (sG) (human respiratory syncytial virus strain A2)
[2] = biological target: T1, 32-residue peptide encompassing RSV G …; experiment: peptide or protein array; Pepscan-based ELISA: peptides covalently linked in the wells of cards, mAb at 1-10 ng/mL overnight at 4°C in PBS with horse serum, OVA and Tween 80; HRP-linked anti-human IgG, ABTS; conditions: both partners purified
[3] = biological target: T3, secreted form of RSV G from strain A2 (sG) (Human respiratory syncytial virus A, …, UniProt P03423, strain); experiment: SPR; sG captured by its C-terminal 8xHis tag on an NTA sensor chip (60-150 RU), Biacore X100; Fab in serial 3-fold dilutions from 300 nM to 46.5 pM in HBS-P+; double-reference subtracted, 1:1 binding model; conditions: both partners purified
T3 construct: attachment glycoprotein G of human respiratory syncytial virus strain A2, secreted form (sG); also called RSV sG; wild-type RSV sG from strain A2; source: FreeStyle 293-F, transfected, purified from supernatant (Strep-Tactin, SEC); not shown: 8xHis, C-terminal, kept

[4] = biological target: reduced and alkylated form of the G peptide (human respiratory syncytial virus subtype A) (UniProt P03423); experiment: SPR; G peptide (or its reduced and alkylated form) immobilised on a CM5 chip by primary-amine coupling (25 RU), Biacore X100; Fab in serial 2-fold dilutions in HBS-P+ (CB002.5 25 nM-98 pM, CB017.5 100 nM-195 pM; on the reduced and alkylated peptide CB002.5 1,000-1.95 nM, CB017.5 62.5-1.95 nM); 1:1 binding model
[5] = biological target: T2, 45-residue synthetic peptide …; experiment: as above; conditions: both partners purified

Binder | IC50 of neutralization of RSV (rgRSV224) infection of primary HBECs at an air-liquid interface, in the absence of complement; pair that is blocked: RSV G and CX3CR1 [1] | binding result [2] | Kd [3] | Kd [4] | Kd [5]
B1 | 45.4 nM | binds | – | – | –
B2 | – | – | 2.4 nM | 27 nM | 4.1 nM
B3 | 4.7 nM | – | – | – | –
B4 | – | – | 3.3 nM | 18000 nM | 0.52 nM
